# Laboratory results reported in the nanobody polyreactivity screen of Harvey et al. (2022).
# Experiment: yeast display, Sf9 membrane polyspecificity reagent, FACS + sequencing; frameworks hold sequencing errors
# Method in brief: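 Galactose-induced (36–48 hours) yeast carrying a synthetic nanobody display library were exposed to 10% biotinylated, detergent-solubilized Sf9 membrane reagent at 4 °C for 1 hour. FACS followed streptavidin microbead enrichment, using low and high (top ~1%) gates for expression (anti-HA) and reagent binding (streptavidin). Colony PCR, MiSeq 2 × 250 sequencing and CDR-length filtering followed. Labels for polyreactivity reflect the gate of origin.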
row,Sequence,polyreactivity (PSR sort gate)
1,QVQLVESGGGLVQAGGSLRLSCAASGSIFPHYAMGWYRQAPGKERELVATIRSRSGSTYYADSVKGRFTISRDNAKNTVYLQMNSLKPEDTAVYYCAKDNSLFQRDYWGQGTQVTVSS,low polyreactivity
2,QVQLVESGGGLVQAGGSLRLSCAASGSIFPINARGWYREAPGKERELVAVITSGGGGTYYADSVKGRFTISRDNAKNTVYLQMNCLTPEDTAVYYCAKRLSRKWQKFGYWGQGTQVTVSS,low polyreactivity
3,QVQLVESGGGLVQAGGSLRLSCAASGSIFPIYAMGWYRPAPGKERELVAAINRSGGSTYYADSVKGRFTISRDNAKNTVYLQMNSLKPEDTAVYYCNADYGYHNQLFWGYYGWSSDHWGQGTQVTVSS,low polyreactivity
4,QVQLVESGGGLVQAGGSLRLSCAASGSIFPKNAMGWSRQAPGKVREFVATITKRGGRTYYADSVKGRFTISRDNAKNTVYLQMNSQKPEEPAVYYCARDQGKLVVPYDYWGQGTQLTVSS,high polyreactivity
5,QVQLVESGGGLVQAGGSLRLSCAASGSIFPKNAMGWYRQAPGKERELVAGITSRTGRTYYADSVKGRFTISRDKAKNTVYLQMNSLKPEDTAVYYCAARIGGGPVKYDYWGQGTQVTVSS,high polyreactivity
6,QVQLVESGGGLVQAGGSLRLSCAASGSIFPKNAMGWYRQATGKERELVARISGSGGSTYYADSVKGRFTISRDNAKNTVYLQMNSLKPEDTAVYYCAKDQSKIYSSWSGYYYWGQGTQVTVSS,low polyreactivity
7,QVQLVESGGGLVQAGGSLRLSCAASGSIFPKYAKGWYRQAPGKEREMVAAINWRGVSTYYADSVKGRFTISRDNAKNTVYLQMNSLKPEDTAVYYCAADLLHTRQFGYWGQGTQVTVSS,low polyreactivity
8,QVQLVESGGGLVQAGGSLRLSCAASGSIFPKYAMGWDRQAPGKERELVATITWSGSSTYYADSVKGRFTISRDNAKNTVYLQMNSLKPEDTAVYYCAATGWSSFYYRFDYWGQGTQVTVSS,low polyreactivity
9,QVQLVESGGGLVQAGGSLRLSCAASGSIFPLNAMGWYRQAPGKERELVASISTGSSTYYADSVKGRFTISRDNAKNTVYLQMNSLKPEDTAVYYCAVDRVLFSDYYRGYEYNYWGQGTQVTVSS,low polyreactivity
10,QVQLVESGGGLVQAGGSLRLSCAASGSIFPLNDMGWYRQAPGKERELVAAITIGGSTYYADSVKGRFTISRDNAKNTVYLQMNSLKPEDTAVYYCAKVGELSYRYDYWGQGTQVTVSS,high polyreactivity
11,QVQLVESGGGLVQAGGSLRLSCAASGSIFPLYAMGWYRQAPGKERELVADITVSGGSTYYADSVKGRFTISRDNAKNTVYLQMNSLKPEDTAVYYCNADDRSPFPDYWWYPYDYDYWGQGTQVTVSS,low polyreactivity
12,QVQLVESGGGLVQAGGSLRLSCAASGSIFPLYDMGWYRQAPGKERELVAGITGSGGSSYYADSVKGRFTISRDNAKNTVYLQMNSLKPEDTAVYYCAADYSLYGWWFRNDYWGQGTQVTVSS,low polyreactivity
13,QVQLVESGGGLVQAGGSLRLSCAASGSIFPNGMGSYRQAPGKERELVATITSGGSTYYADSVKGRFTISRDNAKNTVYLQMNSLKPEETAVYYCADTVYGGYSGSGCNYWGKGTQVTVSS,low polyreactivity
14,QVQLVESGGGLVQAGGSLRLSCAASGSIFPPNAMGWYRQAPGKERELVAGISQSGGSTYYADSVKGRFTISRDNAKNTVYLQMNSLKPEDTAVYYCARSFYSGRRYYYWGQGTQVTVSS,high polyreactivity
15,QVQLVESGGGLVQAGGSLRLSCAASGSIFPPYAMGWYRQAPGKERELVATITIRGGSTYYADSVKGRFTISRDNAKNTVYLQMNSLKREDTAVYYCAADYTKYYRRYYYWGQGTQVTVSS,high polyreactivity
16,QVQLVESGGGLVQAGGSLRLSCAASGSIFPPYVMGWYRPAPGKERELVAAINYIGDSTYADSVKGRFTISRDNAKNTVYLQINSLKPEDTAVYYCAAELWSGGVYSGFEEYWGQGTQVTVSS,high polyreactivity
17,QVQLVESGGGLVQAGGSLRLSCAASGSIFPQNAMGWYRQAPGKERELVASITSRGGITNYADSVKGRFTISRDNAKNTVYLQMNSLKPEDSAVYYCAADLYIYPYDYWGQGTQVTVSS,low polyreactivity
18,QVQLVESGGGLVQAGGSLRLSCAASGSIFPQYAMGWYRQAPGTERELVAAISSSGGRTYYADSVKGRFTISRDNAKYTVYLQMNSLKPEDTAVYYCITRWRSRYGYGDQSEDYWGQGTQVTVSS,high polyreactivity
19,QVQLVESGGGLVQAGGSLRLSCAASGSIFPRNAMGWYRQAPGKERELVAAITTTGGITHYADSVKGRFTISRDNAKNTVYLQMNSLKPEDTAVYYCAASNEVPWRFPDDYWGQGTQVTVSA,low polyreactivity
20,QVQLVESGGGLVQAGGSLRLSCAASGSIFPRNTMGWYRQAPGKERELVAAMSSGASTYYADSVKGRFTISRDNAKNTVYLQMNSLKPEDTAVYYCAKRYQDTSPKDGENEYWGQGTQVTVSS,low polyreactivity
21,QVQLVESGGGLVQAGGSLRLSCAASGSIFPRYAMGWYRQAPGKERELVAAINSGGSTNYADSVKGRFTISRDNAKNTVYLQMHSLKPEDTAVYYCNAVFISYSYRRGPTLYVYWGQGTQVTVSS,high polyreactivity
22,QVQLVESGGGLVQAGGSLRLSCAASGSIFPSNAMGWYRQAPGKERELVAAINRDGITNYADSVKGRFTISRDNAKNTVYLQMNSLKPEDTAVYYCAAEFAWQWWEYGYWGQGSQVTVSS,low polyreactivity

row,Sequence,polyreactivity (PSR sort gate)
1,QVQLVESGGGLVQAGGSLRLSCAASGSIFPSYAMGWYRQAPGKDRELVATLGRGGTTNYADSVKGRFTLSRDNAKNTVYIQMNSLKPEDTAVYYCNAERIWRYKDGYDYWGQGTQVTVSS,high polyreactivity
2,QVQLVESGGGLVQAGGSLRLSCAASGSIFPSYARGWDRKAPGKERELVAAISSSGGSTYYADSVKGRFTISRDNAKNTVYLQMNSLKPEDTAVYYCATRYRRWSTVVQDDYWGQGTQVTVSS,low polyreactivity
3,QVQLVESGGGLVQAGGSLRLSCAASGSIFPSYSMGWYRQAPGKERELVAVISVSGGRTYYADSVKGRFTISRDNAKNTVYLQMKSLKPEDTAVYYCAKDRPQEYDYWGQGTQVTVSS,low polyreactivity
4,QVQLVESGGGLVQAGGSLRLSCAASGSIFPVNAMGWYRQAPGKEREFVAAINVIGGSTYYADSVKGRFTISRDNAKNTVYLQMNSLKPEVTAVYYCAVEGYSILFGMDYLGQGTQVTVSS,low polyreactivity
5,QVQLVESGGGLVQAGGSLRLSCAASGSIFPVNAMGWYRQAPGKERELVAAISEGSTSTYYADSVKGRFTISRDNAKNTVYLQMNSLKPEDTAVYYCAADYDTGYEYWGQGTQVTVSS,low polyreactivity
6,QVQLVESGGGLVQAGGSLRLSCAASGSIFPVYTMGWYRQAPGKEREFVATITISGAITYYADSVKGRFTISRDNAKNTVYLQMTSLKPEDTAVYYCNTGPMYFPANDYWGQGTQVTVSS,low polyreactivity
7,QVQLVESGGGLVQAGGSLRLSCAASGSIFPWNAMGWYRQAPGKERELVAGINESGGSTYYADSVKGRFTISRDNAKNTVYLQMNSLKPEDTAVYYCAADGYPSVGDDYWGQGTQVTVSS,low polyreactivity
8,QVQLVESGGGLVQAGGSLRLSCAASGSIFPWYAMGWYRQAPGKERELVAAITISGGSTHYADSVKGRFTISRDNAKNTVYLQMNRLKPEDTAVYYCATPRYPSYDYWGQGTQVTVSS,low polyreactivity
9,QVQLVESGGGLVQAGGSLRLSCAASGSIFPYNAMGWYRQAPGEFVAAISYSSGSTYYADSVKGRFTISRDNAKNTVYLQMNSLKPEDTAVYYCAAGSWYPPSYVWLGRYDYWGQGTQVTVSS,low polyreactivity
10,QVQLVESGGGLVQAGGSLRLSCAASGSIFPYNDMGWYRQAPGKERELVAAISDSAGSTYYADSVKGRFTISRDNAKNTVYLQMNSLKPEYTAVYYCADYDYWGQGTQVTVSS,low polyreactivity
11,QVQLVESGGGLVQAGGSLRLSCAASGSIFPYNPMGWYRQAPGEFGAAISYSSGSTYYADSVKGRFTISRDNAKNTVYLQMNSLKPEDTAVYYCAAGLPKYEHEYWGQVTQVTVSS,low polyreactivity
12,QVQLVESGGGLVQAGGSLRLSCAASGSIFPYYAMGGYRQAAGKERELVATITSRGGSTDYADYVKGRFTISRDNAKNTVYLQMNSLKREDTAVYYCAKEYRYYRRRYDYWGQGTQVTVSS,high polyreactivity
13,QVQLVESGGGLVQAGGSLRLSCAASGSIFPYYAMGWYRQAPGKERDLVAAISWSGTSTYYADSLKGRFTISRDNAKNTVYLQMNSLNPEDTAVYYCAASGVGTNHYGYWNESDYWGQGTQVTVSS,low polyreactivity
14,QVQLVESGGGLVQAGGSLRLSCAASGSIFPYYAMGWYRQAPGKERELVAAINWSGDSTYYADSVKGRFTISRDNAKNTVYLQMNSLKPEDTAVYYCAARSRWRYDYWGQGTQVTVSS,low polyreactivity
15,QVQLVESGGGLVQAGGSLRLSCAASGSIFPYYAMGWYRQAPGKERELVAAITWSGGGTYYADSVKGRFTISRDNAKNTGYLQMNSLKPEDTAVYYCAASYRYYWFDYWGQGTQVTVSS,high polyreactivity
16,QVQLVESGGGLVQAGGSLRLSCAASGSIFPYYAMGWYRQAPGKERELVAGISRRGGTTYYADSVKGRFTISRDNAKNTVYLQMNSLKPEDTAVYYCAARYGPYVDRYGYWGQGTQVTVSS,high polyreactivity
17,QVQLVESGGGLVQAGGSLRLSCAASGSIFPYYAMGWYRQAPGKERELVATISSGGSTFYADSVKGRFTISRDNAKKTVYLQMNSLKPEDTAVYYCAADIWYFDYDYWGQGTQVTVSS,high polyreactivity
18,QVQLVESGGGLVQAGGSLRLSCAASGSIFPYYAMGWYRQAPGKERELVATITSRGGSTYYADSVKGRFTISRDNAKNTVYLQMNSLKPEDTAVYYCAKEYRYYRRRYDYWGQGTQVTVSS,high polyreactivity
19,QVQLVESGGGLVQAGGSLRLSCAASGSIFPYYDMGWYRQAPGKERELVAAITSSGSTFYADSVKGRFTISRDNAKNTVYLQMNSLKPEVTAVYSCNTRDIRVRPYDYWGQGTQVTVSS,low polyreactivity
20,QVQLVESGGGLVQAGGSLRLSCAASGSIFQFNAMGWYIQAPGKERELVAAISRRTGSTYYADSVKGRFTISRDNAKNTVYLQMNSLKPEDTAVYYCAAKGYGSAPTYRHNYWGQGTQVTISS,high polyreactivity
21,QVQLVESGGGLVQAGGSLRLSCAASGSIFQFSAMGWYRQAPGKERPLVAAISDRGGSTYYADSVKGRFTISRDNAKNTVYLLMNSLKPEDTAVYYCAKGGEVSQGYTDEYDYWGQGTQVTVSS,low polyreactivity
